Reference: doi:10.1101/2021.04.15.439997

Columns and labels:
[1] = target: Strep-tagged glucose-6-phosphate dehydrogenase (G6PDH) from Synechocystis (Synechocystis sp. PCC 6803) (UniProt P73411); assay: SEC-MALS
[2] = target: Strep-tagged glucose-6-phosphate dehydrogenase (G6PDH) from Synechocystis (Synechocystis sp. PCC 6803) (UniProt P73411)

Strep-tagged glucose-6-phosphate dehydrogenase (G6PDH) from Synechocystis (Synechocystis sp. PCC 6803), sequence (P73411 whole entry): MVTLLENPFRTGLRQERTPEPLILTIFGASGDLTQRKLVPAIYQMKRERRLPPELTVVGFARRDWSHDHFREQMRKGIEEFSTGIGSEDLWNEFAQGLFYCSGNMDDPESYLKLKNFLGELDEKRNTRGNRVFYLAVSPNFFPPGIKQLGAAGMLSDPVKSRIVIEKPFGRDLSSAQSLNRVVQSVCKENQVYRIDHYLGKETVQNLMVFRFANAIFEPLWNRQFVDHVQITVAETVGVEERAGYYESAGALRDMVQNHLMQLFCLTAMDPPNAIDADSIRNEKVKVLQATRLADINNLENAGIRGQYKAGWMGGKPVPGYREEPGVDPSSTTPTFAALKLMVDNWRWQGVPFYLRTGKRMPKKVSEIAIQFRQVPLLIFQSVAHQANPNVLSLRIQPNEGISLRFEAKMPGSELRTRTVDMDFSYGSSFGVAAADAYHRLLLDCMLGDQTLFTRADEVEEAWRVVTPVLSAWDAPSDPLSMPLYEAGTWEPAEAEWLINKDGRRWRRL

Strep-tagged oxidative pentose phosphate cycle protein (OpcA) from Synechocystis (natural protein)
stoichiometry N (subunits of OpcA per G6PDH tetramer) [1]: 4 | G6PDH activity after pre-incubation of OpcA with DTTred, compared to the control [2]: 30% | G6PDH activity after pre-incubation of OpcA with Synechocystis thioredoxin TxrA [2]: 10% | G6PDH enzyme kinetics: substrate affinity with OpcA added [2]: 6 fold
